The experiment concerns the target T1, NiV-G-Fc, a fusion construct between the ectodomain of NiV-G and the Fc region of human IgG1 (Nipah virus, UniProt Q9IH62 71-602).
T1 chain: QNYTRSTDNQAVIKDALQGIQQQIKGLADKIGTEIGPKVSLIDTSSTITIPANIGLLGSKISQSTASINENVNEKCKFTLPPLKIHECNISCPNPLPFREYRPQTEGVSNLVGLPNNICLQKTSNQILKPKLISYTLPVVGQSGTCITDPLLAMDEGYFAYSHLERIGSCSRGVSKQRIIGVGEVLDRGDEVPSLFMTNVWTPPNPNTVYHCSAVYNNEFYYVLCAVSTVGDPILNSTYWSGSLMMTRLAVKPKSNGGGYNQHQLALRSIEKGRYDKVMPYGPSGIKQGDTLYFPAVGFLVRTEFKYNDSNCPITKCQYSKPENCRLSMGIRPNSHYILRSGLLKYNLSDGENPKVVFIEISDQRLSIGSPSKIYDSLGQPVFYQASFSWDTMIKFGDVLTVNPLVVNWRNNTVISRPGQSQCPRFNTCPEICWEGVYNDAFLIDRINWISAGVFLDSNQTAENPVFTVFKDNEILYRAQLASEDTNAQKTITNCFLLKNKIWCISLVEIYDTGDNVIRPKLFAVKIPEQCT
Put plainly: SPR. In general terms: SPR reads the build-up and loss of mass on a sensor chip optically.

B1: ephrinB2-Fc (soluble Fc-fusion ephrin protein, purchased) (Fc fusion)
chain: RSIVLEPIYWNSSNSKFLPGQGLVLYPQIGDKLDIICPKVDSKTVGQYEYYKVYMVDKDQADRCTIKKENTPLLNCARPDQDVKFTIKFQEFSPNLWGLEFQKNKDYYIISTSNGSLEGLDNQEGGVCQTRAMKILMKVGQDASSAGSARNHGPTRRPELEAGTNGRSSTTSPFVKPNPGSSTDGNSAGHSGNNLLGSEVA
For B1, the Kd was determined as 0.11 nM.

B2: ephrinB3-Fc (soluble Fc-fusion ephrin protein, purchased) (Fc fusion)
chain: LSLEPVYWNSANKRFQAEGGYVLYPQIGDRLDLLCPRARPPGPHSSPNYEFYKLYLVGGAQGRRCEAPPAPNLLLTCDRPDLDLRFTIKFQEYSPNLWGHEFRSHHDYYIIATSDGTREGLESLQGGVCLTRGMKVLLRVGQSPRGGAVPRKPVSEMPMERDRGAAHSLEPGKENLPGDPTSNATSRGAEGPLPPPSMP
B2 registered a Kd of 2.83 nM.

A word on the Kd: it is the constant that tells how readily two partners part at equilibrium.

(Values after paper PMC1361355 (2006).)
